Source: patent EP3505186B1, “NUCLEOPHILIC CATALYSTS FOR OXIME LINKAGE” (Takeda Pharmaceutical Company Limited, priority 2010, dated 2012)

Legend:
[1] = Specific activity of the EPO conjugate: biological activity by methods known in the art and total protein (Bradford)
[2] = test system: FIX chromogenic activity; experiment: Specific activity of the rFIX conjugate: FIX chromogenic (and clotting) activity and total protein; format: biochemical
Protocol: The free rFIX was removed by means of anion exchange chromatography (AEC). The reaction mixture was diluted with 15 ml Buffer A (50 mM Hepes, 5 mM CaCl2, pH 7.5) and loaded onto a 20 ml HiPrep QFF 16/10 column (GE Healthcare, Fairfield, CT) pre-equilibrated with Buffer A. The column was then eluted with Buffer B (50 mM Hepes, 1 M NaCl, 5 mM CaCl2, pH 7.5). Free rFIX elutes at a conductivity between 12-25 mS/cm and the conjugate between 27-45 mS/cm. The conductivity of the conjugate containing fractions was subsequently raised to 190 mS/cm with Buffer C (50 mM Hepes, 5M NaCl, 5 mM CaCl2, pH 6.9) and loaded onto a 20 ml HiPrep Butyl FF 16/10 column (GE Healthcare, Fairfield, CT) pre-equilibrated with Buffer D (50 mM Hepes, 3 M NaCl, 5 mM CaCl2, pH 6.9). Free aminooxy-PSA reagent was washed out within 5 CV Buffer D. Subsequently the conjugate is eluted with 100 % Buffer E (50 mM Hepes, 5 mM CaCl2, pH 7.4). The conjugate containing fractions were concentrated by UF/DF using Vivaspin 15R 10 kD centrifugal filtrator. The final diafiltration step was performed against histidine buffer, pH 7.2 containing 150 mM NaCl and 5 mM CaCl2. The preparation was analytically characterized by measuring total protein (Bradford) and FIX chromogenic activity.
The free rFIX is removed by means of anion exchange chromatography (AEC). The reaction mixture is diluted with appropriate amounts of Buffer A (50 mM Hepes, 5 mM CaCl2, pH 7.5) to correct the solutions conductivity and pH prior to load onto a 20 ml HiPrep QFF 16/10 column (GE Healthcare, Fairfield, CT) pre-equilibrated with buffer A. Then the column is eluted with Buffer B (50 mM Hepes, 1 M NaCl, 5 mM CaCl2, pH 7.5). Free rFIX is eluted by a step gradient using 25 % of Buffer B, which results in a conductivity between 12-25 mS/cm in the obtained fraction and the conjugate using a step gradient of 50 % Buffer B, which results in a conductivity between between 27-45 mS/cm in the conjugate fraction. […] Free aminooxy-PSA reagent is washed out within 5 CV Buffer D. Subsequently, the conjugate is eluted with 100 % Buffer E (50 mM Hepes, 5 mM CaCl2, pH 7.4). The conjugate containing fractions are concentrated by UF/DF using a 10 kD membrane made of regenerated cellulose (88 cm2, cut-off 10 kD, Millipore). The final diafiltration step is performed against L-histidine buffer, pH 7.2 containing 150 mM NaCl and 5 mM CaCl2. The preparation is analytically characterized by measuring total protein (Bradford and BCA procedure) and FIX chromogenic- and clotting activity. For the PSA-rFIX conjugate a specific activity of > 50 % in comparison to native rFIX is determined.
The free rFIX was removed by means of anion exchange chromatography (AEC). […]

[3] = Specific activity of the interferon-gamma conjugate: biological activity by methods known in the art and total protein (Bradford)
Protocol: (§1) The free Interferon-gamma is removed by means of cation exchange chromatography (CEC). The reaction mixture is diluted with 20 ml Buffer A (50 mM Hepes, pH 6.5) and loaded onto a 20 ml HiPrep SPFF 16/10 column (GE Healthcare, Fairfield, CT) pre-equilibrated with Buffer A. Then the column is eluted with Buffer B (50 mM Hepes, 1 M NaCl, pH 6.5). Free interferon-gamma is eluted by washing the column with 25 % Buffer B and the conjugate at 50 % Buffer B. The conductivity of the conjugate containing fractions is subsequently raised to -190 mS/cm with Buffer C (50 mM Hepes, 5 M NaCl, pH 6.9) and loaded onto a 20 ml HiPrep Butyl FF 16/10 column (GE Healthcare, Fairfield, CT) pre-equilibrated with Buffer D (50 mM Hepes, 3 M NaCl, pH 6.9). Free PSA-reagent is washed out within 5 CV Buffer D. Subsequently, the conjugate is eluted with 100 % Buffer E (50 mM Hepes, pH 6.9). The conjugate containing fractions are concentrated by UF/DF using a 10 kD membrane made of regenerated cellulose (88 cm2, cut-off 10 kD, Millipore). The final diafiltration step is performed against histidine buffer, pH 6.9 containing 150 mM NaCl. The preparation is analytically characterized by measuring total protein (Bradford) and biological activity according to methods known in the art. For the PSA-Interferon-gamma conjugate a specific activity of > 50 % in comparison to native Interferon-gamma is determined. The conjugate is additionally analytically characterized by Size Exclusion HPLC using a Agilent 1200 HPLC system equipped with a Shodex KW 803 column under conditions as previously described (Kolarich et al, Transfusion 2006;46:1959-77). It is shown that the preparation contains no free Interferon gamma.
as §1, with “free interferon gamma” for “free Interferon-gamma”, “10 kD /” for “10 kD,”, “the PSAinterferon-gamma” for “the PSA-Interferon-gamma”, “native interferon-gamma” for “native Interferon-gamma”, “free interferon-gamma.” for “free Interferon gamma.”
The free interferon gamma is removed by means of cation exchange chromatography (CEC). […]

In the case of “PSA-EPO conjugate: erythropoietin polysialylated with 20 kD aminooxy-PSA reagent, m-toluidine as catalyst”, the “specific activity in comparison to native EPO” value ([1]; Reference Example 18 Method 1, alternative procedure (oxidation, then m-toluidine and 20 kD aminooxy-PSA, 5-fold)) is reported as over 50% and the “specific activity in comparison to native EPO” value ([1]; Reference Example 18 Method 3, alternative procedure (simultaneous, 20 kD aminooxy-PSA, 5-fold)) is reported as over 50%.

In the case of “PSA-rFIX conjugate: rFIX polysialylated via oxidized carbohydrate with 20 kD aminooxy-PSA reagent, m-toluidine as catalyst”, the “specific activity in comparison to native rFIX” value ([2]; Reference Example 11 Method 1 (oxidation, UF/DF, then m-toluidine and 20 kD aminooxy-PSA), FIX chromogenic activity, Bradford) is reported as over 50%, the “specific activity in comparison to native rFIX” value ([2]; Reference Example 11 Method 2 (oxidation, UF/DF, then 10 mM m-toluidine and 20 kD aminooxy-PSA), FIX chromogenic- and clotting activity, Bradford and BCA) is reported as over 50% and the “specific activity in comparison to native rFIX” value ([2]; Reference Example 11 Method 3 (simultaneous periodate, m-toluidine, 20 kD aminooxy-PSA), FIX chromogenic activity, Bradford) is reported as over 50%. For the same molecule, the “specific activity in comparison to native rFIX” value ([2]; Reference Example 11 Method 4 (simultaneous, 2 mg rFIX / ml), FIX chromogenic- and clotting activity, Bradford and BCA) was over 50%.

For “PEG-EPO conjugate: EPO PEGylated with a linear 20 kD PEGylation reagent containing an aminooxy group, m-toluidine as catalyst”, the “specific activity in comparison to native EPO” value ([1]; Reference Example 32 Method 1, alternative (oxidation, then m-toluidine and 20 kD aminooxy-PEG, 5-fold)) was over 50% and the “specific activity in comparison to native EPO” value ([1]; Reference Example 32 Method 3, alternative (simultaneous, 20 kD aminooxy-PEG, 5-fold)) was over 50%.

B1: PSA-Interferon-gamma conjugate: interferon-gamma polysialylated with 20 kD aminooxy-PSA reagent, m-toluidine as catalyst (conjugate, UniProt P01579 24-161, looked up)
Interferon gamma: QDPYVKEAENLKKYFNAGHSDVADNGTLFLGILKNWKEESDRKIMQSQIVSFYFKLFKNFKDDQSIQKSVETIKEDMNVKFFNSNKKKRDDFEKLTNYSVTDLNVQRKAIHELIQVMAELSPAAKTGKRKRSQMLFRG
modifications: polysialic acid 20 kD
notes: interferon-gamma polysialylated with 20 kD aminooxy-PSA reagent, m-toluidine as catalyst
For B1, the “specific activity in comparison to native interferon-gamma” value ([3]; Reference Example 27 Method 1 (oxidation, then m-toluidine and 20 kD aminooxy-PSA, 5-fold)) was over 50%, the “specific activity in comparison to native interferon-gamma” value ([3]; Reference Example 27 Method 2 (simultaneous, 20 kD aminooxy-PSA, 5-fold)) was over 50% and the “specific activity in comparison to native interferon-gamma” value ([3]; Reference Example 27 Method 3 (simultaneous, 20 kD aminooxy-PSA, 5-fold)) was over 50%.

B2: PEG-interferon-gamma conjugate: interferon-gamma PEGylated with a linear 20 kD aminooxy PEGylation reagent, m-toluidine as catalyst (conjugate, UniProt P01579 24-161, looked up)
Interferon gamma: B1 Interferon gamma
modifications: PEG 20 kD
notes: interferon-gamma PEGylated with a linear 20 kD aminooxy PEGylation reagent, m-toluidine as catalyst
For B2, the “specific activity in comparison to native Interferon gamma” value ([3]; Reference Example 41 Method 1 (oxidation, then m-toluidine and 20 kD aminooxy-PEG, 5-fold)) was over 50% and the “specific activity in comparison to native interferon-gamma” value ([3]; Reference Example 41 Method 3 (simultaneous, 20 kD aminooxy-PEG, 5-fold)) was over 50%.
